The record followed here is patent US20100216975A1.

The target of assay [1] is Human EphA2-Fc fusion protein (human EphA2 fused with the Fc portion of a human IgG1) (human) (UniProt P29317). As to the kind of experiment: single point ELISA, 500 ng goat anti-human Fab capture, biotinylated EphA2-Fc; plate of clone VH-233/VL-8G7. A general note: An ELISA detects its analyte on a solid surface through an enzyme-linked reagent.
Assay [2] shares this target. As to the kind of experiment: single point ELISA, 500 ng goat anti-human Fab capture, biotinylated EphA2-Fc; plate of clone VH-7E8/VL-8G7.
Assay [3] shares this target. As to the kind of experiment: single point ELISA, 500 ng goat anti-human Fab capture, biotinylated EphA2-Fc; plate of clone VH-233/VL-12C8.
For assay [4] the target is unchanged. The experiment in a line: single point ELISA, 500 ng goat anti-human Fab capture, biotinylated EphA2-Fc; plate of clone VH-2G6/VL-12C8.
For assay [5] the target is unchanged. The experiment in a line: single point ELISA, 500 ng goat anti-human Fab capture, biotinylated EphA2-Fc; plate of clone VH-6H11/VL-8G7.
Assay [6] shares this target. As to the kind of experiment: single point ELISA: periplasmic Fab captured on 20 ng goat anti-human Fab, biotinylated human EphA2-Fc, neutravidin-HRP.
The target is the same in assay [7]. The experiment in a line: single point ELISA: periplasmic Fab captured on 100 ng goat anti-human Fab, biotinylated human EphA2-Fc, neutravidin-HRP.
The target is the same in assay [8]. The experiment in a line: single point ELISA: periplasmic Fab captured on 500 ng goat anti-human Fab, biotinylated human EphA2-Fc, neutravidin-HRP.
The target is the same in assay [9]. Described as above. This is another data set of the same source.
Assay [10] shares this target. Described as above. The source holds these as a separate data set.
Assay [11] shares this target. The experiment in a line: SPR (BIAcore 3000), IgG over immobilized EphA2-Fc (~500 RU), 1:1 Langmuir fit. For orientation: SPR reads the build-up and loss of mass on a sensor chip optically.
For assay [12] the target is unchanged. The experiment in a line: SPR (BIAcore 3000), IgG over immobilized EphA2-Fc, 1:1 Langmuir fit.

Chain of Human EphA2-Fc fusion protein (human EphA2 fused with the Fc portion of a human IgG1) (human) (P29317 24-534 limits assumed): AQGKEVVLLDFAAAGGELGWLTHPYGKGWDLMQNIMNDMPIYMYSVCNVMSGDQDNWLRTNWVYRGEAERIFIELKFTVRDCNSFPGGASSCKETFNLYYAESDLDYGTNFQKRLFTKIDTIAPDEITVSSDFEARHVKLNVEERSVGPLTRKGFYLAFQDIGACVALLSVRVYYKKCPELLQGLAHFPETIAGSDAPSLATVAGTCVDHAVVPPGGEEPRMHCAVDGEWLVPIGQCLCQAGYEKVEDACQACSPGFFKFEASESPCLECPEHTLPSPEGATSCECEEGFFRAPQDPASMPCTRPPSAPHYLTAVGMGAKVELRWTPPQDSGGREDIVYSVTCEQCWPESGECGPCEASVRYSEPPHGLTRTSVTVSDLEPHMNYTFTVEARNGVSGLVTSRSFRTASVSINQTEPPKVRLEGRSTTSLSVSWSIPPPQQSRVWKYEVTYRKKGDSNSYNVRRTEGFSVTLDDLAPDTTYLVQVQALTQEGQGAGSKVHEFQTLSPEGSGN

As for irrelevant antibody (MEDI-493), the OD450 (background signal) came out at 0.2 in assay [1]; 0.2 in assay [2]; 0.1 in assay [3]; 0.3 in assay [4]; 0.2 in assay [5]; 0.1 in [6]. Moreover, the OD450 (background signal) in assay [7] was 0.1 to 0.4; in [8], 0.06 to 0.2; in [9], 0.3; in assay [10], 0.07 to 0.1.

B1: mouse anti-human EphA2 monoclonal antibody EA2 (antibody, from a related filing, V domains shown)
VH: DVKLVESGGGLVKPGGSLKLSCAASGFTFSSYTMSWVRQTPEKRLEWVATISSGGTYTYYPDSVKGRFTISRDNAKNTLYLQMSSLKSEDTAMYYCTREAIFTYWGQGTLVTVSA
VL: DIKMTQSPSSMYASLGERVTITCKASQDINNYLSWFQQKPGKSPKTLIYRANRLVDGVPSRFSGSGSGQDYSLTISSLEYEDMGIYYCLKYDEFPYTFGGGTKLEIK
In assay [11], B1 had a Kd of 5940 pM, a koff of 0.00307 s⁻¹ and a kon of 517000 M⁻¹ s⁻¹.

B2: mouse anti-human EphA2 monoclonal antibody B233 (antibody, from a related filing, V domains shown)
VH: EVKLVESGGGLVQPGGSLSLSCAASGFTFTDYSMNWVRQPPGKALEWLGFIRNKANDYTTEYSASVKGRFTISRDNSQSILYLQMNALRAEDSATYYCVRYPRYHAMDSWGQGTSVTVSS
VL: DIVLTQSPATLSVTPGDSVNLSCRASQSISNNLHWYQQKSHESPRLLIKYVFQSISGIPSRFSGSGSGTDFTLSINSVETEDFGMYFCQQSNSWPLTFGAGTKLELK
In [12], B2 registered a Kd of 400 pM, a koff of 0.00011 s⁻¹ and a kon of 280000 M⁻¹ s⁻¹.

B3: chimaeric form of mAb B233 (VH-233/VL-233) as full length human IgG1 (antibody, from a related filing, V domains shown)
VH: B2 VH
VL: B2 VL
In the case of B3, in [12], the Kd came to 300 pM, the koff was determined as 8e-05 s⁻¹ and the kon was 240000 M⁻¹ s⁻¹.

One may read the Kd as a measure of binding affinity in units of concentration. For orientation: koff means the first-order rate constant of dissociation. A low value points to a long-lived complex. In general, kon refers to the second-order rate constant of association.
